Laboratory results: FireProtDB (doi:10.1021/bi00213a031)
“And” between values parts separate entries of the source, which are not always exact repeats. Identical values can stand only once.

Conditions: Escherichia coli (strain K12), pH 7.8, 25 °C, Urea, phosphate 58 mM, transition: 3, whole UniProt chain shown

B1: Tryptophan synthase alpha chain wild type, P0A877 (protein)
chain: MERYESLFAQLKERKEGAFVPFVTLGDPGIEQSLKIIDTLIEAGADALELGIPFSDPLADGPTIQNATLRAFAAGVTPAQCFEMLALIRQKHPTIPIGLLMYANLVFNKGIDEFYAQCEKVGVDSVLVADVPVEESAPFRQAALRHNVAPIFICPPNADDDLLRQIASYGRGYTYLLSRAGVTGAENRAALPLNHLVAKLKEYNAAPPLQGFGISAPDQVKAAIDAGAAGAISGSAIVKIIEQHINEPEKMLAALKVFVQPMKAATRS
In the case of B1, the denaturant m value (Absorbance) is reported as 2.8 kcal/mol/M and 1.3 kcal/mol/M, the “denaturant midpoint (higher = more stable)” value (Absorbance) is reported as 2.5 M and 3.9 M and the unfolding free energy (Absorbance) is reported as 6.8 kcal/mol and 5.1 kcal/mol. The denaturant m value (CD) was 2.5 kcal/mol/M and 1.2 kcal/mol/M, the “denaturant midpoint (higher = more stable)” value (CD) was 2.5 M and 4 M and the unfolding free energy (CD) was 6.2 kcal/mol and 4.6 kcal/mol.
